Test results published in patent US20110117206A1, “PHOSPHOPEPTIDES AND USE OF THE SAME” (PLANT BIOSCIENCE LIMITED, priority 2008, published 2011).

How the values were obtained:
[1] = Ca2+ binding isotherm (Ca ion selective electrode) fitted with semi-empirical binding model; details: 6.4 = high affinity dianionic phosphoseryl sites; listed as OPN peptide
Source text: To model the chemical species in the OPN 1-149 nanocluster solution requires the calculation of Ca ion binding to the free peptide at any pH in the range 5.0-8.0. A semi-empirical model was used to describe the binding isotherms obtained previously for the β-casein 1-25 phosphopeptide in this pH range and the same model was adapted to fit the binding isotherm of OPN 1-149 measured at pH 7.0. The rescaled model was then used to predict binding at any other value of the pH. Binding of Ca ions to the β-casein 1-25 peptide is predominantly to 4 phosphorylated residues and, to a lesser extent, to 7 Glu residues and the C-terminus.
Fitting of the experimental isotherms was done to an equation of the form
where the summation is over all binding sites with Ca ion association constants Ka,i. The function Ni(pH) describes the number of sites of type i as a function of pH and φi is the degree of phosphorylation. It was assumed, that all the phosphorylated sites had the average degree of phosphorylation φ. The number of dianionic phosphoseryl sites at a given pH is given by
The binding behaviour of β-casein has shown that one Ca ion is bound much more strongly than the rest, so the model for binding to the phosphate dianionic groups allowed for two pKs and two Ca ion association constants. The phosphorylated sites have a reduced affinity for Ca ions when they become protonated and were treated as having the same low affinity as the carboxyl groups. […]
The Ca^2+ binding isotherm of peptides recovered from fraction F3a was determined by measuring the concentration of free Ca ions with a Ca ion selective electrode after successive small additions of a stock solution of 100 mM Ca(NO3)2 to a solution containing 25 mg ml^−1 of F3a, buffered to pH 7.0 with 20 mM P, and 50 mM KNO3. […] The calculated OPN 1-149 isotherm was obtained by a separate fitting of the single isotherm employing a model with two pKs and association constants but keeping as many as possible of the constants from the casein model.

[2] = Partition of salts by ultrafiltration and ion equilibria model of nanocluster solutions; type: physicochemical; details: nanocluster solution at pH 7.0
Protocol: Nanocluster solutions of the Ca-free OPNmix in the Mg-free Buffer A were prepared by the urea/urease method with a pH between 5.0 and 7.5. They were allowed to equilibrate before ultrafiltration through Vivaspin 0.5 ml concentrators (Product VS0101 with a molecular weight cut off of 10,000 Da, Vivascience AG, Germany) using a centripetal field of 5000×g for 15 min. […] The ion activity product in the ultrafiltrates were calculated at each pH for a range of y values in order to find the value that was independent of pH.
In addition to the work with the OPNmix sample, a single determination was made of the partition of salts in a nanocluster solution at pH 7.0 prepared with the pure OPN 1-149 peptide.

[3] = SAXS of free OPN and OPN 1-149 (Guinier, worm-like chain model); type: physicochemical; details: free peptide, 5-15 mg ml^−1, average of three determinations
Protocol: In a SAXS experiment, wherein measurements were made on station 2.1 at the CCLRC Daresbury Laboratory, the normalised scattered intensity I(q) was measured. For a dispersion of isotropic, monodisperse particles, I(q) is related to the inter-particle structure factor, S(q) and the particle scattering factor P(q) by
where N is the number of particles of mean excess scattering length density over the solvent Δ ρp, volume Vp and mass M. The scattering wave vector is q=4π sin θ/λo, where θ is half the scattering angle and λo is the wavelength of the X-rays. In a dilute solution where S(q)=1 and a fraction α′ of the peptide chains have formed a polydisperse distribution of nanoclusters, equation (22) becomes
The molar volumes of the unphosphorylated residues were taken from Jacrot and Zaccai (Jacrot, B. & Zaccai, G. (1981). Determination of Molecular-Weight by Neutron-Scattering. Biopolymers 20, 2413-2426). The molar volume of ortho-L-phosphoserine was calculated from the unit cell volume of the amino acid, as determined by Sundaralingam (Sundaralingam, M. & Putkey, E. F. (1970). Molecular structures of amino acids and peptides. II. A redetermination of the crystal structure of L-O-serine phosphate. A very short phosphate-carboxyl hydrogen bond. Acta Crystallographica B26, 790-800) and 11 Å^3 subtracted to give the residue volume of 168.7 Å^3. The difference in residue volumes of serine and phosphoserine was then used to calculate a residue volume for phosphothreonine of 191.7 Å^3. The X-ray forward scattering amplitudes of the residues were calculated from the elemental compositions using atomic scattering factors. For OPN 16P 1-149 and OPN 28P 1-262, the scattering length densities in units of […] were calculated to be 12.56 and 12.48, respectively. For the nanoclusters prepared with OPN 16P 1-149 it was assumed that the phosphate moieties of the 10 phosphorylated residues found in the three PCs, were assigned to the core, giving ρshell=12.40×10^10 cm^−2. For the core, a hydrated CaP with the composition given by equation (2) gave ρcore=19.1×10^10 cm^−2. Radii of gyration of the whole protein and N-terminal polypeptide were independent of concentration in the range 5-15 mg ml^−1. For OPN the average of three determinations by the Guinier method was 5.50±0.17 nm and the corresponding value for OPN 1-149 was 2.17±0.24 nm. For OPN with 262 residues, equation (28) predicts a radius of gyration of 5.38 nm and for the N-terminal plasmin peptide of 149 residues, the predicted value is 3.84 nm.
Random-coil behavior and the dimensions of chemically unfolded proteins. Proceedings of the National Academy of Sciences of the United States of America 101, 12491-12496). […]

## OPN 1-149: N-terminal osteopontin phosphopeptide fragment from bovine milk, probably formed by plasmin; gel filtration fraction F3a
[1]
  pKs fitted to the OPN 1-149 isotherm: 6.4
[2]
  ultrafiltrate concentration of Ca, experimental: 1.4 mM
  ultrafiltrate concentration of Ca^2+, experimental: 1.1 mM
  ultrafiltrate concentration of Pi, experimental: 12.1 mM
[3]
  radius of gyration by the Guinier method: 2.17±0.24 nm
